Measurements as given in article PMC12337344.

How the values were obtained:
[1] = biological target: G2L4 RT NTE mutant (R12A, Y15A, R19A) (Pseudomonas aeruginosa); test: native gel or EMSA; nondenaturing gel of WT and mutant G2L4 RT proteins; proportions running as monomer or dimer (SI Appendix, Fig. S10C)
[2] = biological target: MBP-tagged wild-type G2L4 RT (Pseudomonas aeruginosa); test: as above
[3] = biological target: MBP-tagged wild-type G2L4 RT (Pseudomonas aeruginosa); test: SEC; gel filtration profiles of MBP-tagged WT and RT3a mutant G2L4 RTs (SI Appendix, Fig. S4 A and B)
[4] = biological target: MBP-tagged G2L4 RT R190E/I202E (Pseudomonas aeruginosa); test: as above
[5] = biological target: G2L4 RT Thumb mutant (R397A, R398A, R404A) (Pseudomonas aeruginosa); test: native gel or EMSA; nondenaturing gel of WT and mutant G2L4 RT proteins; proportions running as monomer or dimer (SI Appendix, Fig. S10C)
[6] = biological target: G2L4 RT with deletion of C-terminal residues 401 to 411 (Pseudomonas aeruginosa); test: not stated; dimer state of G2L4 RT after removal of the MBP tag and after deletion of residues 401 to 411 (SI Appendix, Fig. S10 A and B)
[7] = biological target: G2L4 RT NTE + Thumb mutant (R12A, Y15A, R398A) (Pseudomonas aeruginosa); test: native gel or EMSA; nondenaturing gel of WT and mutant G2L4 RT proteins; proportions running as monomer or dimer (SI Appendix, Fig. S10C)
[8] = biological target: G2L4 RT (Pseudomonas aeruginosa group II intron-like reverse transcriptase), full-length, as crystallised (Pseudomonas aeruginosa); test: SEC; size-exclusion chromatography comparing G2L4 RT to GII RT (SI Appendix, Fig. S1A)
[9] = biological target: MBP-tagged G2L4 RT R191E/I202E (Pseudomonas aeruginosa); test: SEC; gel filtration profiles of MBP-tagged WT and RT3a mutant G2L4 RTs (SI Appendix, Fig. S4 A and B)
[10] = biological target: G2L4 RT without the N-terminal MBP tag (Pseudomonas aeruginosa); test: not stated; dimer state of G2L4 RT after removal of the MBP tag and after deletion of residues 401 to 411 (SI Appendix, Fig. S10 A and B)
[11] = biological target: G2L4 RT with an A instead of an I at the active site (Pseudomonas aeruginosa); test: native gel or EMSA; nondenaturing gel of WT and mutant G2L4 RT proteins; proportions running as monomer or dimer (SI Appendix, Fig. S10C)
[12] = biological target: MBP-tagged G2L4 RT R190E/R191E (Pseudomonas aeruginosa); test: SEC; gel filtration profiles of MBP-tagged WT and RT3a mutant G2L4 RTs (SI Appendix, Fig. S4 A and B)

For “G2L4 RT NTE mutant (R12A, Y15A, R19A) (enzyme)”, the percent of the protein running as monomers [1] was 12%.

MBP-tagged wild-type G2L4 RT (enzyme) was tested, and the percent of the protein running as monomers [2] was under 7% and the stoichiometry N [3] was 2.

Work on MBP-tagged G2L4 RT R190E/I202E (enzyme) yielded a stoichiometry N [4] of 2.

“G2L4 RT Thumb mutant (R397A, R398A, R404A) (enzyme)” was tested, and the percent of the protein running as monomers [5] was 35%.

In the case of “G2L4 RT with deletion of C-terminal residues 401 to 411 (domain or fragment)”, the stoichiometry N [6] is reported as 2.

Work on “G2L4 RT NTE + Thumb mutant (R12A, Y15A, R398A) (enzyme)” yielded a percent of the protein running as monomers [7] of 54%.

For “G2L4 RT (Pseudomonas aeruginosa group II intron-like reverse transcriptase), full-length, as crystallised (enzyme)”, the stoichiometry N [8] was 2.

MBP-tagged G2L4 RT R191E/I202E (enzyme) was tested, and the stoichiometry N [9] was 2.

For “G2L4 RT without the N-terminal MBP tag (enzyme)”, the stoichiometry N [10] was 2.

Work on “G2L4 RT with an A instead of an I at the active site (enzyme)” yielded a percent of the protein running as monomers [11] of under 7%.

MBP-tagged G2L4 RT R190E/R191E (enzyme) gave a stoichiometry N [12] of 2.
